This is an account of results in patent US20240076386A1 (Pfizer, published 2024).

For assay [1], the target named is T1, rabbit E-selectin (rabbit, UniProt P27113 24-495, limits assumed).
T1 sequence (looked up): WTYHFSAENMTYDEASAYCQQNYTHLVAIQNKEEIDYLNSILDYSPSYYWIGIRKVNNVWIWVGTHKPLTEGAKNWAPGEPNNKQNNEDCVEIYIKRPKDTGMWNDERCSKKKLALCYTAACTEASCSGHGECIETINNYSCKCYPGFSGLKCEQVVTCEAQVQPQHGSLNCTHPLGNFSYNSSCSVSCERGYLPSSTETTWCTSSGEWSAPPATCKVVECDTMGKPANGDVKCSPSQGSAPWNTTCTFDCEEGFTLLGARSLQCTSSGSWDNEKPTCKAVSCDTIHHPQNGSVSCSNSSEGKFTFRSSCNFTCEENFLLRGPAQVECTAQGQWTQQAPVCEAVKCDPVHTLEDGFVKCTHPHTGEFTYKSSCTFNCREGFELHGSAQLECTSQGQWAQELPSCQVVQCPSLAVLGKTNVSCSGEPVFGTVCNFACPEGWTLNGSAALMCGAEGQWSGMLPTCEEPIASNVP
The experiment in a line: SPR (BIAcore), single sensorgram per selectin.

Assay [2] has as its target T2, recombinant histidine-tagged cynomolgus monkey E-selectin (Sino Biologicals; 190169-C08H) (cynomolgus monkey, UniProt A0A2K5U7H9 22-554).
T2 construct: also called recombinant cynomolgus monkey E-selectin
T2 sequence: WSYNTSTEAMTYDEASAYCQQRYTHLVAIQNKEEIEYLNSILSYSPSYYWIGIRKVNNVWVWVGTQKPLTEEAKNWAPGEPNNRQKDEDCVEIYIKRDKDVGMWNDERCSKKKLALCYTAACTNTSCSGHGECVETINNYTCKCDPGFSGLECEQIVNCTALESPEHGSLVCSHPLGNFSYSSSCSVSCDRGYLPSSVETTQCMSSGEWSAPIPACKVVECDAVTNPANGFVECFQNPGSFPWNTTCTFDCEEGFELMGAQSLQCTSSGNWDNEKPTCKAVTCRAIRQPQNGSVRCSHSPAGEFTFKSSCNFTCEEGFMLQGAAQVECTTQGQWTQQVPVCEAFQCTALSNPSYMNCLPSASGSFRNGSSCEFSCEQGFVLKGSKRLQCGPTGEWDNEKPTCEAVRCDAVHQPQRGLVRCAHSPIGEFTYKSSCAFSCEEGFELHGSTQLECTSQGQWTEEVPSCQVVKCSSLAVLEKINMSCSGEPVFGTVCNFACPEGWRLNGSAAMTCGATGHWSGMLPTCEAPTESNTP
The experiment in a line: competition ELISA on soluble E-selectin vs sialyl Lewis A, further assays. Here is the method:
Recombinant histidine-tagged E-selectin; cynomolgus monkey E-selectin (Sino Biologicals; 190169-C08H) and human E-selectin (Sino Biologicals; 13025-H08H) stock solutions were prepared to a final concentration of 3 μg/mL in phosphate buffered saline (PBS) without calcium and magnesium. One hundred μL per well of the diluted recombinant E-selectin protein was added into a Ni-NTA HisSorb 96 well plate (Qiagen, 35061) and plates were incubated on an orbital shaker at room temperature for 2 hours. Sialyl Lewis A polyacrylamide biotin, a synthetic E-selectin ligand (GlycoTech corporation 01-044), was conjugated to streptavidin HRP (horse radish peroxidase) (Ultra Streptavidin HRP, Thermo Scientific N504) and diluted in assay diluent containing 2 mM calcium chloride (BD OptEIA buffer; BD Biosciences, 555213).
Following the incubation, the plates were washed 5 times with 200 μL of wash buffer containing 2 mM of calcium chloride (50 mM TRIS [trisaminomethane]; 150 mM sodium chloride, 0.05% polysorbate 20, pH 7.4; 2 mM of calcium chloride). […] The final antibody concentration ranged from 200 nM to 0.09 nM and the final concentration of HRP conjugated Sialyl Lewis A was 5 μg/mL. […] Reactions were stopped with 100 μl of 2M sulfuric acid and absorbance read at 450 nm (Spectramax M5e). Data were analyzed and graphed using GraphPad Prism software (Version 8.0.2).

The target in assay [3] is T3, cynomolgus monkey E-selectin extracellular domain with 10 His purification tail (cynomolgus monkey, UniProt P16581 22-554 (human entry)).
T3 construct: also called cynomolgus E-selectin; truncated cynomolgus monkey E-selectin
T3 chain: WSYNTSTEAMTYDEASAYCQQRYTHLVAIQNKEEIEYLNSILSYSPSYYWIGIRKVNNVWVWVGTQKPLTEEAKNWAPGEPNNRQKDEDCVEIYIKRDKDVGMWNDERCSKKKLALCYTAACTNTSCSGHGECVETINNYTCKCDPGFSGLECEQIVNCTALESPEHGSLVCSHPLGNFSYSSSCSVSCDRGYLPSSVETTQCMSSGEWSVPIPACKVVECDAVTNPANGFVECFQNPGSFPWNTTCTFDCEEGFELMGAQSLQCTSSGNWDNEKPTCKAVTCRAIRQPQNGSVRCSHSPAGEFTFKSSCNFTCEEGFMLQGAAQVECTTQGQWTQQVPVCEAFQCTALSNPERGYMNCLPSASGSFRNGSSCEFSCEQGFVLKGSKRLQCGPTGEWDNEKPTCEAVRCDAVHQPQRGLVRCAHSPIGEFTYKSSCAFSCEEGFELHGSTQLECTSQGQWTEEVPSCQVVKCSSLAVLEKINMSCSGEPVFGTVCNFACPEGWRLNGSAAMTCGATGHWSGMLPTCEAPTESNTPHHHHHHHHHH
The experiment in a line: SPR, soluble recombinant protein. The method, then: To characterize binding of antibodies to human, cynomolgus monkey, and mouse E-selectin, an antibody was diluted to 0.5 μg/mL in HBS-EP+ and captured by the anti-human IgG immobilized on flow cells 2, 3 and 4 for 30 seconds to 1 minute at a flow rate of 10 μL/minute to achieve a capture level of 70 to 300 RU. Flow cell 1 was used as a reference surface. […] HBS-EP+ buffer cycles collected for each captured antibody were used for double-referencing (Myszka D G. J. Mol. Recognition 1999; 12(5):279-84). At the end of each cycle, the entire anti-IgG surface was regenerated by a 30 second pulse of 3 M MgCl₂ and a 30 second pulse of ionic buffer (1.83 M MgCl₂, 0.92 M Urea, 1.83 M Guanidine HCl, pH 7.4) (Andersson K. Analy. Chem. 1999; 71(13): 2475-81). Kinetic assays were conducted at 25° C. at a collection rate of 10 Hertz (Hz) on a BIAcore™ T200 instrument (GE Healthcare). Rate constants and affinities were determined by fitting the data to a 1:1 binding model in BIAcore™ T200 Evaluation software version 3.0 (GE Healthcare).

B1: optimized anti-E-selectin antibody 1444 (antibody, human IgG1, kappa, V domains shown)
VH: EVQLVESGGGLVQPGGSLRLSCAASGYAIRSAYMHWVRQAPGKGLEWVARIDPANGNTIYVDSVTGRFTISADNAKNSAYLQMNSLRAEDTAVYYCAMDLYSTSEYWGQGTLVTVSS
VL: DIQMTQSPSSLSASVGDRVTITCKTSQNIERYLNWYQQKPGKAPKLLIYAASSLQSGVPSRFSGSGSGTDFTLTISSLQPEDFATYFCLQDNAWPLTFGQGTKVEIKR
notes: effector-null human IgG1, kappa
Regarding B1, the binding result in assay [1] was “no binding”. Further, the IC50 in assay [2] is 2.45 nM. The Kd in assay [3] stood at 64.9 nM.
